Reference: paper PMC4467374
No end group written: not given here. Me3 = tri-methyl on lysine side chain

Key:
[1] = target: tandem tudor domain (TTD) of UHRF1; experiment: AlphaScreen or HTRF
[2] = target: tandem tudor domain (TTD) of UHRF1; experiment: fluorescence polarisation

IC50 [1] [µM]	IC50 [2] [µM]	Binder
95	–	ARTK(Me3)QTARKSTGEW [H3K4me3 competition peptide (low affinity competitor)]
6	12	ARTKQTARKSTGEW (here or on the partner: trimethyl-lysine at K9) [H3K9me3 competition peptide (high affinity competitor)]
